Experiment: soluble on expression in E. coli; label from the status in PepcDB or PDB records

Row | Sequence | soluble on expression in E. coli
1 | MAGKITVVGLGAGDMDQLTIGIHKLLTKADTLYVRTKDHPLIEELEKETKNIRFFDDIYEKHDQFEAVYEEIADILFEAARREDVVYAVPGHPFVAEKTVQLLTERQEKENVQVKVAGGQSFLDATFNVLQIDPIEGFQFVDAGTLSADELELRHHLIICQVYDQMTASEVKLTLMEKLPDDYEVVIVTAAGSRGEEIRTVPLFELDRNVALNNLTSVYIPPIKEEKLLYHEFSTFRSIIRELRGPNGCPWDKKQTHQSLKQYMIEECYELLEAIDEEDTDHMIEELGDVLLQVLLHAQIGEDEGYFTIDDVIKGISEKMVRRHPHVFKDVKVQDENDVLANWEDIKKAEKNTSESSLLDSVPKTLPALSKAAKLQKKAAKVGFDWEDVSDIWEKVSEEMKEFSSEVSEAPHEHNLKAEFGDILFALVNVARFYKIEPEEALTMTNDKFRRRFSYIEETAKEEGVELADMSLEDMDKLWNEAKETERRS | soluble
2 | MSLSLEEALLFREATVTDLKSIMNVENAAFTVPWTEAAFRNEFIINQYAYYLLAIYKEQVVGYAGVWLVLDEGHITNIAIHPDYQGNHYGEALLREMIRVAKERGVVRMTLEVRVSNDVAQGLYKKLGFQDGAIRKNYYPDTKEDALVMWVDLEGHHHHHH | soluble
3 | TPIINDPETVKLFLLTELQHEEREVFMVLFLDNQHRLIKKERLFLGTIYVSAVYPREIIKEALYCNAAALILAHNHPSGITEPSYSDQLITKKIQDAAELMEIRVLDHLIVGKSDCYSFAENCLL | not soluble
4 | MKKILDACCGSRMFWFDKQNDQVLFMDNRKHYEKLESGHIVAVNPNIVADFRKMPFDDNSFYHVVFDPPHLLRAGSNSWLAKKYGKLNEQTWKEDIQKGFSECMRVLKPNGTLVFKWNEDQIKLSEILSIIDYEPLYGNKRAKTHWLVFMKESEENESNGLEHHHHHH | not soluble
5 | MGSDKIHHHHHHMKYYYKDGEGFNSKGVFIRVGSTKRVASFDEIQRMIRSHSSNDFELISIDRDDLTFEYIESRFKEKGIKFDVYALSLIGKDNKYNNAALLLSDQNPTISKFAVFQGTDVSVFLDKKEFTGSILKQLDEILYFASLSNRKRITISGKPGREEYLDIPKRALREAIVNCYCHRDYTLSGDVKIEFYDDRVQIFSPGSLPDGLTLENIKMGMVAKRNKIIVNTLDKIDVIENYASGVRRIFEDYADFTKQPEYYISNNGVIVTLFNRNYEAQNEAQNEAQILKLDNQKRIEKILELIKENKNITRSNLKDILGVSKSTIERDISKLKEEDKLEYIGSSRNGYWKVKNN | not soluble
6 | MLRFYAMKQITEPGTYEIRGEVAEGDFSWDATNFAGFFYDVNDDVSTESLTVTGLNGGNVIPEGGLVYETTIQMVDYEYSKPSVGWDQFPVLGFFAEEYIPINADKADKLAKLVLDSDDKYTIRTGEQLDLGEGYAIEAKQVDVDGEKVWLEFTKDGEFVDDEIISVVSGSDNTWEVELDDIQDEDDVVVLRVHVNQVFQGAVDSIAQIEGIWLIDYANAMKIESDDEFGDLDNVKINGATLTITNEDTFTLTRDDEVEIGQGMFFKVADTAASDLRYYPFVEKTIDGEVVLEHHHHHH | soluble
7 | MGSDKIHHHHHHMGIDIKHEESSLVGLLTYIGRLKDEQFDYVIDLHNVIRSKIIRFYLRFFGVKGFSLKKPRLQLRQLTAKPPKKPTRLPSVIERYAQVFHKAGLEIHPPYPILLNDSGHISTELPIVEIGSGHHLIGIAPFAGHEAKTYPPEKMHEVVRTLAERDDVQIFLFGGKGKEKNILEQWADESPRIVSVAGLLSLPEELSLIHALRCMVSMDSANMHFASLVGTRVISIWCATHPAAGFLGYGQRIEDCIGADLDCRPCSVFGNKPCFRKDYACRTQIEPQLIINKIVSTLTDLNSDETEN | not soluble
8 | GSLATCIGEKIEDFKVGNLLGKGSFAGVYRAESIHTGLEVAIKMIDKKAMYKAGMVQRVQNEVKIHCQLKHPSILELYNYFEDSNYVYLVLEMCHNGEMNRYLKNRVKPFSENEARHFMHQIITGMLYLHSHGILHRDLTLSNLLLTRNMNIKIADFGLATQLKMPHEKHYTLCGTPNYISPEIATRSAHGLESDVWSLGCMFYTLLIGRPPFDTDTVKNTLNKVVLADYEMPSFLSIEAKDLIHQLLRRNPADRLSLSSVLDHPFMSRNSSTKSKDLGTVEDSIDSGHATISTAITASSSTSISGSLFDKRRLLIGQPLPNKMTVFPKEG | soluble
9 | MSLIITRTPLRITFVGGGTDLPDFYTRHGGSVVSAAINRYIYIIVNKKFDSKIRVSYSRTEIVDKVDEIRHPTVREALRLLELDGGIEILSISDVPSQGTGLGSSSSFLVGLLNALHAYKSEYVSNETLAEEAVKIEREILREAGGKQDQYMAAYGGIDLLQFFQNGEVRVKPIPLNTERLKYLRDNTALLYTGVERSSTDIHTDQISKIDDHIQEYLEMKKLAEEFAVKLYASDIKELGEIMDRNWMLKRKLSGKITNDLIDRLYIRAKELGAYGGKLIGAGGGGFLLFFIDHNKRENLKELGLRQMDYDFDFEGSRIIYYQDREGHHHHHH | soluble
10 | MGSDKIHHHHHHMPTLLMITPENSEINKFKAHQLNNFTQLTMPYLAGFVPEEYSIRLLDEYTEPILFEKVDLVAITVNTPNAPHVYSVSKRFRELGAWVALGGPHVTLNPEEAACHGDTIFVGEAEETWPEFLKDFLSGNMQKVYTSLQVPSLDGLPIPRRDLIVGHRFTSGAVFASRGCPHHCSYCSLKKIYHNKLRTRPVDEVIKDIGSMPNKYFVFWDDNFFADPVYTKALLKELARLNKRWAAQVTAYSCEDEELLSLAKSAGCLYLFLGLESFSEQGLRDANKNFNKIEEYGKVVNKLHRHGISIQAGIVFGFDSDTLDVFETTLKACNKIGVDGVTASILTPFPGTSIYEQYKKEGRLLDVDWDHYNGKTRVAYVPKRMNCKELLNGYNEFRGKFHSWRSIVKRISKSRVNIFYSLAMNYGYKRAYRNFTRLGIGERSDESLGQRMEQHLRNWPR | not soluble
11 | MGILSGNPQNEPLHYGEVFDIWSYLLAAQGAIASHQVFMNHTGDEDLKKFLEGLIENDMNSEIEELKALLKINGVALPPAPPERPVASIEDIPPGARINDVEIAAAVSTGLAAGLVTCSQVMGKCLREDVGMLFGQFHMKKAQAGVTLLRLSKKKGWVVPPPLHVRNSDQA | not soluble
12 | MGSDKIHHHHHHMLPLEGLTVIAVEQAVAAPYCSSRLADAGAHVIKIERPEGDFARGYDAAAKGQSSYFVWLNRGKESAVVDLATKEGRAELEKLIASADVLLQNLKPGSMDKLGFARERLRKDYPKLIICTISGYGDEGPYAHRKAYDLLIQAESGLASITGGPESASRVGMSIVDVATGATAHAAILEALIGRGRTGQGADIRISMFDVMADWLTVPLLNAEAGNPPKRLGLAHPSIAPYGVFTSKDGKDILISIQSEREWKKLCSDVLRQPDLPNDPRLCNGVERVKNRAYTDKIVADIFGSLTRDDLLEHLAAADIAFAEVNAMEDLSHHPHLRRIEVDTPNGKVSYPAPAAIFVGDERRYGAVPGIGDKRK | not soluble
13 | SMDEVVRIHSSSGTTGKPTVVGYTKHDMEVWGEVMARTFTLAGVTAKDVVHNAYGYGLFTGGLGFHDGAQRVGATIIPASGGFTNRQIMLLRDFKATALTCTPSFAMHLAEVAKSEGFDPRKDFHLKAGIFGAEPSSEGLQRAVADTWGIAYHEIYGLSELIGPGVSCSCEQ | not soluble
14 | MIVIEGSDKFKIAKEYIDVEYTLFSKVTFRYEKLKFKDNAELEKIKMFKYKNGYIPNKLNLSFGYGFSSYKKQIIRETVDTLRLTEIFSSENIEDIKFIKDGTKKLEISIEKVVKFKRRKKRNYVCCYCPDMYRDIKLDKESINKIYNRKIKIEREVNIFEDEDVIINKKVLKFPKSWTKNMQKYWLSENKYPIHSTVIDDDRYKCCNVQYTKNRVIILYYIYNH | not soluble
15 | MGSDKIHHHHHHMNHLNDKVNEIKDNFYGLIGHAYLEKYITKPIVDEDKLRFLYTMLAEKLPKKDTKLFTLSALLVDAALEIHEAVSLHNIQTDPIKKNRQLNVLAGDYYSSLYYYLLADSRHLPIIQVFSHSIQEINEYKMKLYDGKNIDFDEVKNNVDKVDTFLLQNLAEHFQLTTWKKAISVFFHLKRLVHEREAWINGKATPLMKAIVTELFGSNRPVDELKKDDQLQVLELWEEKVEEGKDHLLEHVKALLPKFERFFVDHLNDLFGPDYIHEKVAEEG | not soluble
16 | MMMKSLLMTPLSHRVLKLFCRQTDQRFQKQKNALQQVQREKLQQILKISTLAQAAGVTDYEQFRQQFPVTRYTHWRDRIHECRAQQSTLSNSKLVRYQPTSGSSEQIKFIPYTQAFLDELDAAIAPWLSSMYRKCSTLGQGTHYWSVSWLPESQREVLKNENLNDDSALLGVGKRLLSKFTQTVPSDVSFAAHADDALFATLCYLVADQDLAMISVWSPTFALQLLEKLTEQSHEIALVLETGQWQTRAASLKGVKAPYNSARASLLRQLMKKDTLDYQQLWPKLSLVSSWDTAGSKQWAQLLQSELPFAQFEGKGLWATEGVVTIPYDDLYPLAYHSHFYEFEYLAGEHQGDIIPSWQLKLNDLVSPVLTSGNGLLRYCLDDCLRVTGFYGQVPCFEFQGRRFGVDLVGEKLSPEVAHKLLTRLNQQHIQAISLFAVDTQQQAKPFYAVLVEGEATSPLSVDEIDQALREHFHYELARDLGQLDQPQIFYVDNGWEGYKQVVVREGMIEGNIKPEPLKKVTLSSLEQLSCAESV | not soluble
17 | MSMATVDPWMQNLPQITNQDFFHSSGIECWNRQFPDHRVVEENGPIKTKDALMILYFITVRNIRKNRNTITRIRDALKSPVSIFRRSPKLSLQEDVLSWQKSPESLAASEYGSKLFVQFLKQQTSADDVDFWLACAKHRWTEMTRDGYEYAAYMIYNTYVFWTCERKIDLLDKFCFVDDDGGTPRDVFITAQAYVGTKFPKDSHKKFLQDPIYLNFLHSVSSAANQQKK | not soluble
18 | MMQEETFYSVRMRASMNGSHEDGGKHISGGERLIPFHEMKHTVNALLEKGLSHSRGKPDFMQIQFEEVHESIKTIQPLPVHTNEVSCPEEGQKLARLLLEKEGVSRDVIEKAYEQIPEWSDVRGAVLFDIHTGKRMDQTKEKGVRVSRMDWPDANFEKWALHSHVPAHSRIKEALALASKVSRHPAVVAELCWSDDPDYITGYVAGKKMGYQRITAMKEYGTEEGCRVFFIDGSNDVNTYIHDLEKQPILIEWEEDHDS | not soluble
19 | MTAYGHMPGEAIECLSIAVELHKQEVIDAHGQVTIRVGFKIGGGIDQDPTKAPFKYPDSGVYITNVESGSPADVAGLRKHDKILQVNGADFTMMTHDRAVKFIKQSKVLHMLVARADLPPVSLH | not soluble
20 | MLEIKRYKNRVASRKCRAKFKQLLQHYREVAAAKSSENDRLRLLLKQMCPSLDVDSIIPRTPD | soluble
21 | MAHHHHHHMPAVADCTVVFPLRHDPASTHPDVSGLVGKAFERVNWRDAFDTFLAEERSALWAAKTAFDNTDTSAYIAARDALFPQAVSGVHGAVAFRNRAGHKLHETMEAVGLWEYLKGGATRAKGTFTFVDVCGGPGAFSQALFAMGKEHKLRLRGFGLTLRNVKGLDWYTDLPSRSFFPCYGIDGTGDVFKLENIESLCSLTCKENVRLVVADGGFDVPTEVVNFQETISCRIVYGQWLSAVKLLRPGGCFVLKLFDCFSPFTRAILFLTTHLYESVQVVKPRHSRVVNSERYLVCIGFIGAPKQWLEHFERCYQEGFVDNDNIPTVLPTSLFSGDKIFGADVERMSATIASNQVSGLHAILEKLQSKPAMEEVKS | not soluble
22 | GEAPADRLKALVDAAVQPVMKANDIPGLAVAISLKGEPHYFSYGLASKEDGRRVTPETLFEIGSVSKTFTATLAGYALTQDKMRLDDRASQHWPALQGSRFDGISLLDLATYTAGGLPLQFPDSVQKDQAQIRDYYRQWQPTYAPGSQRLYSNPSIGLFGYLAARSLGQPFERLMEQQVFPALGLEQTHLDVPEAALAQYAQGYGKDDRPLRVGPGPLDAEGYGVKTSAADLLRFVDANLHPERLDRPWAQALDATHRGYYKVGDMTQGLGWEAYDWPISLKRLQAGNSTPMALQPHRIARLPAPQALEGQRLLNKTGSTNGFGAYVAFVPGRDLGLVILANRNYPNAERVKIAYAILSGLEQQGKVPLKR | soluble
